From publication PMC3089455 come the findings set out here.

Test [1] addresses Aeromonas hydrophila AhQnr (Aeromonas hydrophila ATCC 7966). Put plainly: AUC.
Test [2] concerns the target AhQnr Δdouble deletion mutant (both loops removed) with C-terminal hexahistidine tag (Aeromonas hydrophila ATCC 7966). Put plainly: SEC. (In general: SEC sorts molecules by how far they enter the pores of the column.)
Test [3] addresses AhQnr Δloop1 deletion mutant with C-terminal hexahistidine tag (Aeromonas hydrophila ATCC 7966). Nature of the test: SEC.
Test [4] deals with AhQnr Δloop2 deletion mutant with C-terminal hexahistidine tag (Aeromonas hydrophila ATCC 7966). Nature of the test: SEC.

In general, stoichiometry N refers to the number of molecules, sites or subunits per partner or assembly. Regarding “Aeromonas hydrophila AhQnr (natural protein)”, the stoichiometry N in test [1] was found to be 2.

In test [2], “AhQnr Δdouble deletion mutant (both loops removed) with C-terminal hexahistidine tag (natural protein)” registered a stoichiometry N of 2.

In turn, “AhQnr Δloop1 deletion mutant with C-terminal hexahistidine tag (natural protein)” returned a stoichiometry N in test [3] of 2.

With “AhQnr Δloop2 deletion mutant with C-terminal hexahistidine tag (natural protein)”, in test [4], the stoichiometry N amounted to 2.
